The source of these data is publication PMC6917787, “Structural basis of nucleosome assembly by the Abo1 AAA+ ATPase histone chaperone” (Nature Communications, 2019).

Changes are numbered by the printed parent chain. Names and notes keep the numbering of the source. Bounds are passed on as bounds.

What is called Kd is the equilibrium constant for the complex coming apart. A higher Kd goes with a looser complex. As usually defined, the stoichiometry N is the number of molecules, sites or subunits per partner or assembly.

In series [1] the test system is Histone H3-H4, Cy5-labelled ((only implied by the reviewer comments)). The experiment in a line: single-molecule DNA curtain. Particulars: DNA curtain: 5 nM Abo1 and 12.5 nM Cy5-H3-H4 pre-incubated on ice 15 min with 1 mM nucleotide, then 15 min with DNA without flow, YOYO-1 washed out in assay ….
In series [2] the target is Cy3-labeled histone H3–H4 (X. laevis) (UniProt P84233). The series can be described thus: fluorescence polarisation; fluorescence anisotropy; 0–1 μM Abo1 added to 20 nM Cy3-labeled H3–H4; 30 mM HEPES pH 7.5, 200 mM NaCl, 1 % glycerol, 2 mM MgCl2, 0.01 % NP-40; room temperature; affinity not significantly changed with nucleotide. For orientation: Fluorescence polarisation rises when a labelled molecule tumbles more slowly, as on binding a larger partner.

Series [3] concerns the molecule itself. The series can be described thus: SEC; Superose6 gel filtration of purified Abo1 in buffer with 2 mM EDTA, 2 mM MgCl2 or 2 mM MgATP. In general terms: Size exclusion chromatography separates by hydrodynamic size, large species first.
Series [4] deals with the molecule itself. The series can be described thus: cryo-EM structure; Abo1 in 20 mM HEPES pH7.5, 250 mM NaCl, 1 mM DTT, 0.025 % octyl β-D-glucoside with 2 mM MgCl2 (apo), 2 mM MgADP or 2 mM MgATP (Walker B mutant).

With “lambda phage DNA (single-tethered DNA curtain)”, the binding signal (% DNA with bound H3-H4) in series [1] is 5.24; in series [1] (loading by wild-type Abo1 (5 nM), 1 mM ATP), 85; in series [1] (wild-type Abo1, no ATP) it was < 10.

B1: Abo1 (aa243–1190), wild type (enzyme, Schizosaccharomyces pombe, UniProt O14114 243-1190, looked up)
chain: GRIREKSDLADSDPLGVDSSLSFESVGGLDNYINQLKEMVMLPLLYPEIFQRFNMQPPRGVLFHGPPGTGKTLMARALAAACSSENKKVSFYMRKGADCLSKWVGEAERQLRLLFEEAKSTQPSIIFFDEIDGLAPVRSSKQEQIHASIVSTLLALMDGMESRGQVIIIGATNRPDAVDPALRRPGRFDREFYFPLPDRDARKKIIEIHTRNWDPPVPEWLCSMLAEKSKGYGGADLRALCTEAALNSIKRTYPQLYRSTKRLQIDPKTIKVKVKDFVMSMKRMIPSSERSSISPSKPLSPELKPLLNEAFQDIEKTLQKLMPVASKLNPLEEVMYDDPKENDFEYQQRLETFETLRIYKPRFLICGRKGLGQTALGPAILQQYEGVHVQSFDMSTLLQDSTQSIETSIIHLFLEVRRHTPSIIYIPDIDNWLNVLPLTAITTFSSMLERLDFSDQILFLALSSSPLSELHPQLREWFSSKQSVYSLQYPTRDSIIAFFQPILELIKASPTELPGGIPRKRRVLPELPLAPDPPPFTSQKITLKQTKQADMRLLNKLKIKLNALLGSLRARYRKFKKPLIDFNDIYCVDPETGHSYRSREECHYEFVDDVVKQIGSDQKFSMMSLEEIEKRTWDNCYCTPKQFVHDIKLILRDALQLEDSETIKRAQEMYANVLLGVEDMEDDQFSQRCERMALREAERRKLRHGKLQKHLDETKADMQFTSEKPSVDESITEVDDAIKDGPPVLAETLTNSLMEDVGPENVDMDIEDNEIFTNQSTMSVPSMLVENEESPKPDEYIDQKDKVQSPLLNGKSPVGVPSEAALRVSTDVSTNISSNGRADIPVDTLITSPADVPNNAPTDAHNITSADGHIENIEQEVVFPDLVFDEDRLTPLKQLLIDSTTGFTVDQLLHLHSFLYQIIWNTKSEWNRNSVVDECERAVKEFMINALQ
notes: Abo1, Schizosaccharomyces pombe ATAD2 homolog, aa243–1190 (acidic N-terminus truncated; two AAA+ domains, bromodomain and C-terminal domain); Gene synthesized (Genscript), pFastBac-HTB; also called recombinant Abo1; wild-type Abo1; source: Sf9 (baculovirus), purified (Ni-NTA, TEV cleavage, HiTrapQ); not shown: 6xHis, N-terminal, cleaved
Molecule B1 yielded a Kd in series [2] of 23 nM. Also, the “stoichiometry N” value in series [3] was determined as 6.

B2: Abo1 Walker B mutant (E372Q), aa243–1190 (enzyme, Schizosaccharomyces pombe, UniProt O14114 243-1190, looked up)
chain: B1 chain with E130Q
notes: Abo1, Schizosaccharomyces pombe, aa243–1190, Walker B mutation E372Q; also called ATP-Abo1 Walker B mutant; ATP-Abo1; source: Sf9 (baculovirus), purified (Ni-NTA, TEV cleavage, HiTrapQ); not shown: 6xHis, N-terminal, cleaved
Consider B2, for which the binding result in series [4] is on record as “binds”.
